{"source": "patent US20240279678A1", "key": {"[1]": {"molecular_target": "HIV envelope gp120 of HIV recombinant strain NL43 that expresses GFP (HIV-1)", "experiment": "cell-based or functional assay"}, "[2]": {"molecular_target": "HIV envelope gp120 of HIV-1 strain HXB2 engineered to express Green Fluorescence Protein (HIV-1) (UniProt P04578)", "experiment": "cell-based or functional assay"}}}
{"substance": "3BNC117 antibody (IL-2 secretory signal construct, expressed from AGT112)", "values": [{"measurement": "% GFP positive (HIV-infected) cells, transduced PBMC, donor NY025 (control without vector 3.96%)", "setting": "[1]", "result": 1.79, "unit": "%"}, {"measurement": "% GFP positive (HIV-infected) cells, transduced PBMC, donor NY026 (control without vector 0.57%)", "setting": "[1]", "result": 0.3, "unit": "%"}]}
{"substance": "VRC01 antibody (IL-2 secretory signal construct, expressed from AGT111)", "values": [{"measurement": "% GFP positive cells, CD4 T cells, AGT111 at 2 MOI, day 5 (no vector 0.71%)", "setting": "[1]", "result": 0.38, "unit": "%"}, {"measurement": "% GFP positive cells, CD4 T cells, AGT111 at 2 MOI, day 7 (no vector 2.18%)", "setting": "[1]", "result": 1.37, "unit": "%"}, {"measurement": "% GFP positive cells, CD4 T cells, AGT111 at 4 MOI, day 5 (no vector 0.71%)", "setting": "[1]", "result": 0.32, "unit": "%"}, {"measurement": "% GFP positive cells, CD4 T cells, AGT111 at 4 MOI, day 7 (no vector 2.18%)", "setting": "[1]", "result": 0.94, "unit": "%"}, {"measurement": "% GFP positive cells, CD4 T cells, AGT111 at 8 MOI, day 5 (no vector 0.71%)", "setting": "[1]", "result": 0.25, "unit": "%"}, {"measurement": "% GFP positive cells, CD4 T cells, AGT111 at 8 MOI, day 7 (no vector 2.18%)", "setting": "[1]", "result": 0.36, "unit": "%"}, {"measurement": "decrease in HIV infection, C8166 cells", "setting": "[1]", "result": 75.4, "unit": "%"}, {"measurement": "percent inhibition (cells protected), day 5, AGT111 MOI 8", "setting": "[1]", "result": 88, "unit": "%"}, {"measurement": "percent inhibition (cells protected), day 7, AGT111 MOI 8", "setting": "[1]", "result": 93, "unit": "%"}, {"measurement": "percent inhibition (cells protected), day 9, AGT111 MOI 2", "setting": "[1]", "result": 6, "unit": "%"}, {"measurement": "percent inhibition (cells protected), day 9, AGT111 MOI 4", "setting": "[1]", "result": 7, "unit": "%"}]}
{"substance": "VRC01 antibody (antibody secretory signal construct, expressed from AGT113)", "values": [{"measurement": "% HIV positive primary CD4 T cells, AGT113-transduced (un-transduced 1.28%)", "setting": "[1]", "result": 0.36, "unit": "%"}, {"measurement": "decrease in HIV infection, C8166 cells", "setting": "[1]", "result": 96.7, "unit": "%"}]}
{"substance": "sCD4(D1+D2) (from UniProt P01730 26-203) (receptor)", "values": [{"measurement": "% GFP positive cells, FIG. 8A, AGT116-transduced PBMC (control 0.46%)", "setting": "[1]", "result": 0.3, "unit": "%"}, {"measurement": "% GFP positive cells, FIG. 8B, AGT116-transduced PBMC (control 7.75%)", "setting": "[1]", "result": 3.67, "unit": "%"}, {"measurement": "% HIV positive primary CD4 T cells, AGT116-transduced (control 2.83%)", "setting": "[1]", "result": 2.65, "unit": "%"}]}
{"substance": "sCD4(D1+D2)-IgG1 Fc (Fc fusion)", "values": [{"measurement": "% GFP positive C8166 cells, NL4-GFP with version 1, average", "setting": "[1]", "result": 8.47, "unit": "%"}, {"measurement": "% GFP positive C8166 cells, NL4-GFP with version 1, replicate 2", "setting": "[1]", "result": 7.49, "unit": "%"}, {"measurement": "% GFP positive cells, FIG. 8A, AGT117-transduced PBMC, column NL43-sCD4-Ig (control 0.46%)", "setting": "[1]", "result": 0.26, "unit": "%"}, {"measurement": "% GFP positive cells, FIG. 8B, AGT117-transduced PBMC, column NL43-sCD4-Ig (control 7.75%)", "setting": "[1]", "result": 2.98, "unit": "%"}, {"measurement": "% HIV positive primary CD4 T cells, AGT117-transduced (control 2.83%)", "setting": "[1]", "result": 0.65, "unit": "%"}, {"measurement": "decrease in HIV infection, primary CD4 T cells", "setting": "[1]", "result": 77, "unit": "%"}, {"measurement": "proportion of infected CD4 T cells, AGT117-transduced (no vector average of 2%)", "setting": "[1]", "result": 0.024, "unit": "%"}, {"measurement": "virus inhibition, NL4-GFP challenge of C8166 cells", "setting": "[1]", "result": 53, "unit": "%"}, {"measurement": "% GFP positive C8166 cells, HXB2-GFP with version 1, replicate 2", "setting": "[2]", "result": 1.22, "unit": "%"}, {"measurement": "inhibition of virus infection, HXB2-GFP challenge of C8166 cells", "setting": "[2]", "result": 91, "unit": "%"}]}
